Test results published in paper PMC9186393.

Columns and labels:
U2AF65 WT = U2AF65 WT (UniProt P26369 1-475); assay: EMSA
U2AF65 E425A = U2AF65 E425A (UniProt P26369 1-475, E425A); assay: EMSA
U2AF65 E425A, sequence (P26369 whole entry E425A, one chain of several): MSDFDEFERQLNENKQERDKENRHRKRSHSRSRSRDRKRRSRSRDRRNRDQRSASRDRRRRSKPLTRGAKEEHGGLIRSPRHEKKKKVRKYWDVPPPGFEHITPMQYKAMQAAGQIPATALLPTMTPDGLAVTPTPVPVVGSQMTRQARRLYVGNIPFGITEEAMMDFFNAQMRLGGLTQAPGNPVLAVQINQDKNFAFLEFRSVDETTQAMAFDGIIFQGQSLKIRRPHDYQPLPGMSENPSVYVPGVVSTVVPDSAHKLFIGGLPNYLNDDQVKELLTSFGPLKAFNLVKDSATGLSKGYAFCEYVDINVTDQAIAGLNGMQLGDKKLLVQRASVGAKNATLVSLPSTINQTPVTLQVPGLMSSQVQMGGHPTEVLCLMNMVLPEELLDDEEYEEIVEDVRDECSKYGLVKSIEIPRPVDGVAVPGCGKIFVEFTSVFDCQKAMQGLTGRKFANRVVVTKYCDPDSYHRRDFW

U2AF65 WT, sequence (P26369 whole entry, one chain of several): as the sequence (P26369 whole entry E425A, one chain of several) above, with A425E counted along it

Binder	binding result (U2AF65 WT)	binding result (U2AF65 E425A)
CCUGCUUUUUUCCCUUUUAAGGCCUCGAUCCA (ssRNA) [U2 LPL 3' splice site]	binds	binds
CUUAACUCCUCUCUACAGU (ssRNA) [U12 Scn8a 3' splice site]	no binding	no binding
